Test results published in patent US8357518B2, “Thermostable enzymes for the hydrolysis of mannan-containing polysaccharides” (The Board of Trustees of the University of Illinois, priority 2010, dated 2013).

What was measured:
Experiment in all cases: Catalytic efficiency with oligosaccharides, HPAEC (Man5A-TM2)
Format in all cases: biochemical, Caldanaerobius polysaccharolyticus
Conditions in all cases: other: Man5A-TM2 0.3 μM, oligosaccharide 30 μM, citrate buffer 50 mM, pH 5.5, 5 min, triplicate
[1] = substrate: OC[C@H]1O[C@@H](O[C@H]2[C@H](O)[C@@H](O)[C@H](O[C@H]3[C@H](O)[C@@H](O)[C@H](O[C@H]4[C@H](O)[C@@H](O)[C@H](O[C@H]5[C@H](O)[C@@H](O)[C@H](O[C@H]6[C@H](O)[C@@H](O)C(O)O[C@@H]6CO)O[C@@H]5CO)O[C@@H]4CO)O[C@@H]3CO)O[C@@H]2CO)[C@H](O)[C@@H](O)[C@@H]1O
Protocol: (§1) Cloning, expression, and purification of Man5A-TM1, Man5A-TM2 and Man5B. C. polysaccharolyticus was cultured in TYG medium and DNA was isolated from mid-log cultures and purified using the Qiagen DNeasy Blood and Tissue kit with an integrated RNase treatment step. The genome of C. polysaccharolyticus was partially sequenced by the W. M. Keck Biotechnology Center at the University of Illinois at Urbana-Champaign. A Newbler assembly was generated which is comprised of ½ plate of FLX PE 454 data and ½ plate of 8 kb paired-end GSFLX Titanium data using a Genome Sequencer instrument from 454 Life Sciences (Branford, Conn.). The partial genome sequence was uploaded onto the Rapid Annotation using Subsystem Technology (RAST) server (Aziz et al., BMC Genomics, 9:75, 2008). Auto-annotation of the C. polysaccharolyticus partial genome sequence identified ORF0760 as a gene predicted to encode a bifunctional β-D-mannanase/endoglucanase (Man5B). Man5A was previously identified in a recombinant phage library of C. polysaccharolyticus genomic DNA, which was screened for endoglucanase activity (Cann et al., J Bacteriol, 181:1643, 1999) and the full sequence of this gene was also identified in the partial genome sequence for C. polysaccharolyticus.
(§2) The DNA sequence corresponding to man5B was amplified by the PicoMaxx high fidelity PCR kit using genomic DNA as the template with the primer set Man5B-Forward and Man5B-Reverse (Table 1-1). The primers were engineered to incorporate a 5′-[…] (SEQ ID NO: 54) extension in Man5B-F and a 5′-[…] (SEQ ID NO: 55) extension in Man5B-R, which facilitated subsequent directional cloning. The resultant man5B amplicon was then digested with T4 DNA polymerase exonuclease activity, annealed with a similarly digested pET-46b vector and introduced into E. coli JM109 by electroporation. Man5A-TM1 was amplified using genomic DNA as template with primers Man5A-TM1-F and Man5A-TM1-R (Table 1-1). The primer sets for Man5A-TM1 and Man5A-TM2 were designed to include 5′-NdeI and 3′-XhoI restriction sites for subsequent directional cloning. The resulting amplicons were then cloned into the pGEM-T vector via TA-cloning and subcloned in-frame with the hexahistidine (His6) encoding sequence of a modified pET-28a expression vector via its NdeI-XhoI polylinker site. The truncated protein Man5A-TM2 originally named ManA-SLH-CBD was cloned as described in a previous study (Cann et al., J Bacteriol, 181:1643, 1999). Expression of each of the resulting gene constructs yielded fusion proteins containing an N-terminal polyhistidine tag sequence to facilitate affinity purification via metal chelate chromatography. The resulting plasmid constructs pET46-Man5B, pET28a-Man5A-TM1, and pET-28a-Man5A-TM2 were sequenced to confirm the integrity of the cloned genes (W. M. Keck Center for Comparative and Functional Genomics at the University of Illinois at Urbana-Champaign).
(§3) The plasmid constructs were then introduced into E. coli BL-21 CodonPlus (DE3) RIL competent cells by heat shock, and grown overnight in lysogeny broth (LB) agar medium supplemented with ampicillin (100 μg/mL) and chloramphenicol (50 μg/mL) at 37° C. After 12 h, single colonies were selected and used to inoculate fresh LB (10 mL) supplemented with the antibiotics above at the same concentrations, followed by culturing with aeration for 8 h at 37° C. The pre-cultures were then inoculated into fresh LB (1 L) supplemented with ampicillin and chloramphenicol and the cultures were incubated at 37° C. with vigorous aeration (225 rpm/min). The cultures were grown to an optical density of 0.3 at 600 nm, and the temperature was shifted to 16° C. and gene expression was induced by the addition of 0.1 mM isopropyl β-D-thiogalactopyranoside (IPTG). […]

[2] = substrate: OC[C@H]1O[C@@H](O[C@H]2[C@H](O)[C@@H](O)[C@H](O[C@H]3[C@H](O)[C@@H](O)[C@H](O[C@H]4[C@H](O)[C@@H](O)C(O)O[C@@H]4CO)O[C@@H]3CO)O[C@@H]2CO)[C@H](O)[C@@H](O)[C@@H]1O
Protocol: as §1, §2, §3

[3] = substrate: OC[C@H]1O[C@@H](O[C@H]2[C@H](O)[C@@H](O)[C@H](O[C@H]3[C@H](O)[C@@H](O)[C@H](O[C@H]4[C@H](O)[C@@H](O)[C@H](O[C@H]5[C@H](O)[C@@H](O)C(O)O[C@@H]5CO)O[C@@H]4CO)O[C@@H]3CO)O[C@@H]2CO)[C@H](O)[C@@H](O)[C@@H]1O
Protocol: as §1, §2, §3

[4] = substrate: OC[C@H]1O[C@@H](O[C@H]2[C@H](O)[C@H](O)[C@H](O[C@H]3[C@H](O)[C@H](O)[C@H](O[C@H]4[C@H](O)[C@H](O)[C@H](O[C@H]5[C@H](O)[C@H](O)[C@H](O[C@H]6[C@H](O)[C@H](O)C(O)O[C@@H]6CO)O[C@@H]5CO)O[C@@H]4CO)O[C@@H]3CO)O[C@@H]2CO)[C@@H](O)[C@@H](O)[C@@H]1O
Protocol: as §1, §2, §3

[5] = substrate: OC[C@H]1O[C@@H](O[C@H]2[C@H](O)[C@H](O)[C@H](O[C@H]3[C@H](O)[C@H](O)[C@H](O[C@H]4[C@H](O)[C@H](O)C(O)O[C@@H]4CO)O[C@@H]3CO)O[C@@H]2CO)[C@@H](O)[C@@H](O)[C@@H]1O
Protocol: as §1, §2, §3

B1: Caldanaerobius polysaccharolyticus endo-β-mannanase Man5A truncation mutant Man5A-TM2, SEQ ID NO: 29 (Caldanaerobius polysaccharolyticus) (protein)
chain: AGTSGDGRFHVVGNKIVDPDGKDFIIKGVNIQGYRSWEKRSVLQDVHLIADVWKFNTVRLNCFIGQNNWGEGTGANNDIDAIIKAFTAKKVVVEIDLHDTTGYPPLSNPPPAPGQPSLDQAIAWFKELAAKYKDNPYVWFNTMNEPGSSTAPLDPQWKVANEEIIKAIRSTGADNIIVVDGWSYANEGIEQNTPTVDEKRSAVLTYGQDLLNADSAKNTIFAFHNYNEGDIQKKVEDYIDRANAKGLYVFMEEYGKDYSDAAKEGVKSGLQAVMNKGAGRIYWNWDGYDLYDLTSGTGRGSGWEINKTDGSKPTNLSWVGDKIWDDNHGITPTFDDQNPKVDLALERLIANNNGFKAGDKVQFTTFLRNSGDLPIGKDSKVVVKFYVDGVQLGDPVEISGGIAVGQRIPVTSPELTVSKTDFTVKAVIDSSSTYADGAEDAVIENNWIEAAFNSTAPSSGYELVVTGIKITPDTVKEGDYVQAQVTVANQGPEATPVTNIIGWFYVNGYYYTLDDAAKSCAEQDNVTLKPGESITLSTKVKYRAAAPFNFSFVLENLYADDQNQSNNSITVNVPVK
Work on B1 yielded a kcat/Km [1] of 25000 ± 8000 M⁻¹ s⁻¹, a kcat/Km [2] of 1800 ± 500 M⁻¹ s⁻¹ and a kcat/Km [3] of 2200 ± 300 M⁻¹ s⁻¹. The kcat/Km [4] was 28000 ± 8000 M⁻¹ s⁻¹ and the kcat/Km [5] was 11000 ± 1000 M⁻¹ s⁻¹.
